For the assay, the target named is T1, Human CEACAM6 Protein, Human, Recombinant (His Tag) (human, UniProt P40199 35-320).
T1 construct: Bought antigen; also called CEACAM6抗原; CEACAM6蛋白; not shown: His tag
T1 sequence (looked up): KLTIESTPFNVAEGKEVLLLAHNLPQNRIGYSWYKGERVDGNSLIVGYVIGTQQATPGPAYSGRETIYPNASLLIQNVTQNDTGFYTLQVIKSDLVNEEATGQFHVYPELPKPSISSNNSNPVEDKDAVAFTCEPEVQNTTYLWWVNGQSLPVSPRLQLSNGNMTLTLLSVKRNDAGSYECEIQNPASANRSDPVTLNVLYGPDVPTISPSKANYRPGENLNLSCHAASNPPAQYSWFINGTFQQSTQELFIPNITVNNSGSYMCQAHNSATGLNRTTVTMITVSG
Briefly: phage ELISA, phage-displayed VHH on coated CEACAM6. For orientation: An ELISA detects its analyte on a solid surface through an enzyme-linked reagent.

B1: 单域抗体NBC36 (VHH)
VHH: QVQLVESGGGLVQAGGSLRLSCVVSGIDFRINNMGWYRQAPGTQRELVASVTPGRNTNYADSVKGRFTISRDNAQNTVYLQMNSLQPEDTAVYSCSAYGPSGAYWGQGTQVTVSS
notes: Alpaca VHH
Regarding B1, the binding result was “binds”.

B2: 单域抗体NBC10 (VHH)
VHH: QVKLEESGGGLVQAGGSLRLSCAASGRTFSNYAMGWFREAPGKEREFVGSSSRSGSFSYLVDSVKGRFTIFRDNDKNTVYLQMNSLKPEDTAVYYCAAQTAIRAGVRDDYDFWGQGAQVTVSS
notes: Alpaca VHH
For the molecule B2, the binding result is “binds”.

B3: 单域抗体NBC25 (VHH)
VHH: QVKLEESGGGLVQPGGSLRLSCAASGQTARAGIMGWFRQAPGKEREFVAAMGRSGASAYYQDSVQGRFTISRDNAQNTVFLQMNSLKPEDTAVYHCAAGNPIALTTAQYYDYWGQGTQVTVSS
notes: Alpaca VHH
B3: the binding result is “binds”.

The record behind these values is patent publication CN112409485A (BEIJING NIUAMBO BIOTECHNOLOGY CO LTD, dated 2021).
